From the DeepSol protein solubility set come the findings set out here.

The series in a line: soluble on expression in E. coli; label from the status in PepcDB or PDB records.
Turning to “MEILTLEQQKSFIKAIDGHKLEVLFLLALGTGLRLGELLGLKWFDIDFKKSNLTVKRTLQRTYFIDKTGNRELKVLEQGPKTSNSYRTVPIPKDVLNKLKEHKVNQNTDILKAGELYINNNYVFCNELGIPIDDKRPLRNLKSILNSLNIEPIKFHGLRKTYATRLFENDVPPKTVQVLMGHYDISITLNIYTQVMEDKKVEAVEKLDKIFSLEHHHHHH”, the “soluble on expression in E. coli” value is “soluble”.
In the case of “MEIPTAKPQKEHEFLNRIVGDWIMTASSGHEAYDPNDPEQVFIEKVRSIGGLWIIGEGTGKMPDGTSMTAVITVGFDPAKGNFVGTWVGSMMTNLWVYKGWLEEDGKTLTLEAEGPAFDGSGDTATYHDVLVLHDDNHRSFSGSVKQPDGTFKTFMTSEFRRKT”, the “soluble on expression in E. coli” value is on record as “soluble”.
Regarding “MEKAADLQDTASLTLKFKFNPKLGIDNPVLSLAEDHDPYDPWSLERPRFCLLSKEEGKSFGFHLQQELGRAGHVVCRVDPGTSAQRQGLQEGDRILAVNNDVVEHEDYAVVVRRIRASSPRVLLTVLARHAHDVARAQLGEDAHLCPTLGPGVRPRLCHIVKDEGGFGFSVTHGNQGPFWLVLSTGGAAERAGVPPGARLLEVNGLWQSGQQVTLLVAGPEVEEQCRQLGLPLAAPLAEGWALPTKPRCLHLEKGPQGFGFLLREEKGLDGRPGQFLWEVDPGLPAKKAGMQAGDRLVAVAGESVEGLGHEETVSRIQGQGSCVSLTVVDPEADRFFSMVRLSPLLFLENTEAPASPQGSSSASLVETEDPSLEDTSVPSVPLGSRQCFLYPGPGGSYGFRLSCVASGPRLFISQVTPGGSAARAGLQVGDVILEVNGYPVGGQNDLERLQQLPEAEPPLCLKLAARSLRGLEAWIPPGAAEDWALASDLL”, the “soluble on expression in E. coli” value is reported as “soluble”.
For “MEKDIKRQIQILEIITSEEKWFTTIEISKILRCCNKTIMKDISFIKDFLPEDWHIKIKKGKGVRIYLPYNKHRNEITFLLFRESLTFRILQHLFERETKTIATLAERLYIQVPSILPALKRVENYLKKFGLKLRKKPLRLEGDEVRIMIMYLDLYLKSYNDTEWPFEKLKKEVIFQYLGTLEESLGISLHVVSKRHLSFFIAILLKRKQQGYKVQLNRKFLYFNTETPDYVKIGRIFEKLEREFGVSLTVQDKILLTISIKSSKYVYKDINKEKEESVQYFKEGNLSIYELVKDFINSLEEKLKVDLISDEEFIFALVDYFKRTIYHLQYLCMFERPQKQTIQYMQTEHSETFSAVKEVYTEFVKKNEIADYVSVEEIAKVTMYIEASRLRYTSNYKKVLLVTGESESWAEYLAATLAKRFGDKIQISTVFFAKKSDHDVNADFIISTIPLDLGSTPIICINSIPTERDYTNIQYYLDLQDG” the value was “not soluble”; for “MEKGYRLLERIELGEPKNCYEKVVSHKHLIESIHLHLADLLNTHSGNAMIDSEYGLPDFNDVLSNNTNLVRHIQKNITATIERFEPRLLNVEVHYREDHHNPLQLGFGIRGEVSHNGGKVPMSIDVYMGTD”, “not soluble”; for “MEKISDLIECIAYEKNLPKEMISKVIQGCLLKMAQNELDPLARYLVVEENKQLQLIQLVEVLEDGDERLVNDPSKYISLSKAKEMDPSVKIKDELSYSLSLESMKQGAINRLFKDLQYQLEKALEDSHFEAFQKRLNSVLMGQVILVDHNQNTFIEIEQQFQGVLSMRHRIKGESFKVGDSIKAVLTQVKRTKKGLLLELSRTTPKMLEALLELEVPEIKDKEIEIIHCARIPGNRAKVSFFSHNARIDPIGAAVGVKGVRINAISNELNKENIDCIEYSNVPEIYITLALAPAKILSVEIKKIPIEELNAEEKESIQERFIVNNHLQKAKVRLLDIEKSKAIGKGGVNVCLASMLTGYHIEFETIPSVKENAENESEKETPKVGVEALESLFKNLEHHHHHH”, “soluble”.
Consider “MEKKTIVLGVIGSDCHAVGNKILDHSFTNAGFNVVNIGVLSSQEDFINAAIETKADLICVSSLYGQGEIDCKGLREKCDEAGLKGIKLFVGGNIVVGKQNWPDVEQRFKAMGFDRVYPPGTSPETTIADMKEVLGVE”, for which the “soluble on expression in E. coli” value is given as “soluble”.
The result for “MEKLVAYKRMPLWNKQTMPEAVQQKHNTKVGTWGKITVLKGALKFIELTEEGEVLAEHLFEAGADNPMAQPQAWHRVEAATDDVEWYLEFYCKPEDYFAKKYNTNPVHSEVLEAMQTVKQGKALDLGCGQGRNSLFLAQQDFDVTAVDQNGLALEILQSIVEQEDLDMPVGLYDINSASIEQEYDFIVSTVVLMFLQADRIPAIIQNMQEKTSVGGYNLIVCAMDTEDYPCSVNFPFTFKEGELADYYKDWELVKYNENPGHLHRRDENGNRIQLRFATLLAKKIKLEHHHHHH” reads “soluble”.
